Source: publication PMC9477746, “Mechanism of AAA+ ATPase-mediated RuvAB–Holliday junction branch migration” (Nature, 2022)

B2: N-terminally truncated RuvB (16-333) from S. thermophilus (domain or fragment, UniProt Q03IE9 16-333, looked up)
chain: VERTLRPQYFKEYIGQDKVKDQLKIFIEAAKLRDEALDHTLLFGPPGLGKTTMAFVIANEMGVNLKQTSGPAIEKAGDLVAILNDLEPGDILFIDEIHRMPMAVEEVLYSAMEDYYIDIMIGAGETSRSVHLDLPPFTLVGATTRAGMLSNPLRARFGINGHMEYYELPDLTEIVERTSEIFEMTITPEAALELARRSRGTPRIANRLLKRVRDYAQIMGDGVIDDKIADQALTMLDVDHEGLDYVDQKILRTMIEMYGGGPVGLGTLSVNIAEERETVEDMYEPYLIQKGFIMRTRTGRVATAKAYEHMGYDYTRDN
notes: RuvB, Holliday junction AAA+ ATPase, Streptococcus thermophilus, residues 16-333; domains RuvB^L 21-181, RuvB^S 182-254, RuvB^H 255-330; C-terminal TEV site, linker and HA tag; TEV cleavage done during dialysis, so residues of the TEV site may remain at the C-terminus; Tetrameric by gel filtration in solution, hexamer on DNA in the cryo-EM complex; also called RuvB (S. thermophilus); RuvB motor; …

Key:
[1] = target: B2; test: cryo-EM structure; same reconstitution of the RuvAB-Holliday junction hetero-complex, on ice 30 min before vitrification (dataset t1); conditions: both partners purified
[2] = target: the molecule itself; test: cryo-EM structure; in vitro reconstituted RuvAB-Holliday junction hetero-complex: SEC-purified RuvA-HJ mixed with RuvB, 10 mM MgCl2, equimolar ATPγS and ADP (1 mM), 37 °C 10 min, then on ice about 5 h before vitrification (dataset t2)
[3] = target: the molecule itself; test: SEC; Superdex 200 10/300GL, 100 mM NaCl, 1 mM EDTA, 0.5 mM DTT, 5% glycerol, 100 mM Tris-HCl pH 8; each protein alone; mass estimated from retention of a gel filtration standard
RuvA = target: T1, RuvA (Salmonella typhimurium, UniProt P66746 1-203); test: EMSA; 5 mM EDTA; complex II (two tetramers) saturated at >500 nM RuvA; complex I (one tetramer) at <200 nM; EMSA: 30 mM Tris-HCl pH 8, 5 mM EDTA, 1 mM DTT, 100 ug/ml BSA, 30 min at 37 C; 6% PAGE at 4 C in 0.5x TAE; conditions: protein: recombinant; tags: C-terminal His4; chain copies: 4; label: 5'-32P on one strand; four-way junction 1:2 2:3 3:4 4:1
T1 sequence: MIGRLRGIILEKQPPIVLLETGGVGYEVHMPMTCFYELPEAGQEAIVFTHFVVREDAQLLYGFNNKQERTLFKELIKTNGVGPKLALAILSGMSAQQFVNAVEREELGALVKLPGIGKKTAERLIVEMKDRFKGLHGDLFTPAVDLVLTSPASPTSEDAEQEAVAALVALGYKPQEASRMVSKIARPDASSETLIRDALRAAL

B1: RuvA from S. typhimurium (natural protein, UniProt P66746 1-203, looked up)
chain: MIGRLRGIILEKQPPIVLLETGGVGYEVHMPMTCFYELPEAGQEAIVFTHFVVREDAQLLYGFNNKQERTLFKELIKTNGVGPKLALAILSGMSAQQFVNAVEREELGALVKLPGIGKKTAERLIVEMKDRFKGLHGDLFTPAVDLVLTSPASPTSEDAEQEAVAALVALGYKPQEASRMVSKIARPDASSETLIRDALRAAL
notes: RuvA, Holliday junction branch migration protein, Salmonella typhimurium; three domains (I, II, III); Tetramer in solution by gel filtration; two tetramers (eight chains) on the Holliday junction in the cryo-EM complex; Cloned into pET-52b(+) by NcoI and SacI; also called RuvA (S. typhimurium); recombinant S. typhimurium RuvA; source: E. coli BL21(DE3), purified (HisTrap, Superdex 200 SEC)
[1]
  stoichiometry N: 1 RuvA^D3 per RuvB hexamer
[2]
  stoichiometry N: 4

## B2
[3]
  stoichiometry N: 4
[2]
  stoichiometry N: 6

B3: HJ-Y2Ap (immobile Holliday junction) (structured_DNA)
DNA 1: CTCATCGAGAATCTGCCGAGAGACCGAGCAGAATTCTATGTGTTTACCAAGCGCTG
DNA 2: CAGCGCTTGGTAAACACATAGAATTCTGCTCGGTCTGAGCCGTCTAAGAGACCTAG
DNA 3: CTAGGTCTCTTAGACGGCTCACTGGCTGTGGGATCCGAGCTGTCTAGAGACATCGA
DNA 4: TCGATGTCTCTAGACAGCTCGGATCCCACAGCCAGTCTCGGCAGATTCTCGATGAG
RuvA
  binding result: binds
